According to IntAct's records for PubMed 24132237:

Target: wasf2_human WASF2 (UniProt Q9Y6W5)

Ras-related C3 botulinum toxin substrate 1 (Homo sapiens) (from UniProt P63000-1) Q61L
effect of a mutation on the interaction: increasing interaction strength
